Experiments:
BE2C cells = assay: Dopamine toxicity in BE2C cells, viability by Neutral red staining; type: cell-based, human; conditions: for cell survival at high Dopamine concentrations compared to control: BE2C cells, infection and transfection, Dopamine 24 hours, vs empty vector (FIG. 4 and 5); for protection of cells (Neutral red staining): 24 hours after exposure to high dopamine concentrations
Description: The aim of the experiment was validation of the fragment of KIAA0538 found using Dopamine selection (SEQ. I.D. No 94) which has 253 nucleotides. A slightly smaller fragment was used , wherein the first 12 of the nucleotides of SEQ. I.D. No 94 were replaced with 5 different nucleotides. The location of this smaller fragment (having 246 nucleotides) within the KIAA0538 cDNA is from nucleotide 2020 to nucleotide 2265. For purpose of validation, cells were studied either after decrease of the gene expression by means of transfection or transduction with an antisense expressing vector (the fragment rescued from the library during the functional screening), or after increased gene expression using transfection with a full length expression vector. For experiment, BE2C cells were seeded into 6-well plates at density 100,000 cells/well. Retroviral vector expressing KIAA0538 antisense fragment (rescued in functional selection) fragment or empty vector (pLXSN) were introduced in neuroblastoma cells by two different methods—transfection using Fugen6 reagent (Rosh) or by retroviral infection. Population of transfected/transduced cells was enriched by 3 days G418 selection. BE2C cells were further treated with different concentrations of Dopamine for 24 hours and assayed for viability by Neutral red staining (FIG. 4—infection; FIG. 5—transfection).

P19 cells = assay: Colony formation assay in P19 cells, normoxic or ischemic conditions; type: cell-based, mouse; conditions: vs empty vector (FIG. 6)
Method: FIG. 6B is a graphical representation of FIG. 6A.
The effect of the full length KIAA0538 cDNA on cell survival was tested in colony formation assay in non-differentiated P19 cells stably expressing Tet-activator (confers high level of expression from responsive promoters). P19 cells were transfected with eithet empty vector or the same vector containing the full-length KIAA0538 cDNA under the control of Tet-repressible promoter. The number of transfected cells further taken for colony formation assay was normalized by cotransfection with GFP, so that the equal number of GFP-positive cells was taken for the assay. The cells were further plated and grown in the absence of tetracycline (to ensure the gene's expression) and in the presence of hygromycin (selectable marker) for 48 hours. Then part of the plates were subjected to 16 hours ischemia (0.5% O2 and no glucose) and following the transfer into normoxic conditions were further grown until the accomplishing of hygromycin selection (death of mock-transfected cells). The cell colonies grown in plates were fixed, stained with methylene blue and photographed with a CCD camera (FIG. 6). The area of the colonies was quantified using the IMAGE-Pro program.

B1: SEQ ID No 94: library-derived antisense cDNA fragment of KIAA 0538, expressed from retroviral vector pLXSN (nucleic acid, listed as Homo sapiens)
antisense: TTAAAACTGCTTACCAGTGGCTGTCTGCGCTGCGGAAGGTGAGCATCAACAACACGGGACTGTTGGGCTCCTACCACCCTGGCGTCTTCCGTGGGGACAAGTGGAGCTGCTGCCACCAAAAAGAGAAGACAGGTCAGGGCTGCGATAAGACCCGGNCACGGGTGACCCTGCAGGAGTGGAATGACCCTNTTGACCGTGACCTTGAGGCCCANCTCATCTACCGGCACCTGCTGGGCGNGGAGGCCATGCTGTG
modifications: expressed from retroviral vector pLXSN; (156)..(238) n
notes: library-derived antisense cDNA fragment of KIAA 0538, expressed from retroviral vector pLXSN
cell survival at high Dopamine concentrations compared to control (BE2C cells; listed as KIAA0538 antisense fragment): rescue of cells from apoptotic death
cell survival at high Dopamine concentrations compared to control (BE2C cells; listed as antisense KIAA0538 fragment): protects
cell survival at high Dopamine concentrations compared to control (BE2C cells; listed as antisense fragment of KIAA0538): increased cell survival
protection of cells (Neutral red staining) (BE2C cells; retrovirally infected BE2C cells, vs control vector pLXSN (FIG. 4)): protection
protection of cells (Neutral red staining) (BE2C cells; transiently transfected BE2C cells, vs control vector pLXSN (FIG. 5)): protection

B2: full length cDNA clone of KIAA 0538: full-length KIAA0538 cDNA under the control of Tet-repressible promoter, transfected into P19 cells (nucleic acid, listed as Homo sapiens)
DNA: TTAAAACTGCTTACCAGTGGCTGTCTGCGCTGCGGAAGGTGAGCATCAACAACACGGGACTGTTGGGCTCCTACCACCCTGGCGTCTTCCGTGGGGACAAGTGGAGCTGCTGCCACCAAAAAGAGAAGACAGGTCAGGGCTGCGATAAGACCCGGNCACGGGTGACCCTGCAGGAGTGGAATGACCCTNTTGACCGTGACCTTGAGGCCCANCTCATCTACCGGCACCTGCTGGGCGNGGAGGCCATGCTGTG
modifications: under Tet-repressible promoter; (156)..(238) n
notes: full-length KIAA0538 cDNA under the control of Tet-repressible promoter, transfected into P19 cells
effect on cell survival, colony formation (P19 cells; 16 hours ischemia (0.5% O2 and no glucose)): very few colonies remaining
effect on cell survival, colony formation (P19 cells; 16 hours ischemia (0.5% O2 and no glucose), listed as KIAA0538): almost entirely non-viable
effect on cell survival, colony formation (P19 cells; 16 hours ischemia (0.5% O2 and no glucose), listed as full-length cDNA): dramatically cytotoxic
effect on cell survival, colony formation (P19 cells; normoxic conditions, listed as KIAA0538): detrimental
effect on cell survival, colony formation (P19 cells; normoxic conditions, listed as full-length cDNA): moderately cytotoxic
